One may read the EC50 as the concentration needed to bring the measured effect to its halfway point.

Consider eight molecules from patent US20040009569A1, “Kinase crystal structures and materials and methods for kinase activation” (priority 2001, published 2004).

Entries after “also recorded” stand apart in the source; their conditions may differ. Read-outs that look alike come from different tables or passages of the source. Square brackets hold non-standard residues; d marks the D form. Peptide text beside a SMILES is read from it. pS = N[C@@H](COP(=O)(O)O)C(=O)O

The target of assay [1] is pΔPH-PKBβ-ΔC (human PKBβ residues 146 to 460, phosphorylated in vitro on Thr-309) (human) (UniProt P31751). Nature of the assay: cell-based or functional assay.
Assay [2] has as its target T1, pΔPH-PKB-ΔC (PKBβ residues 146 to 460, phosphorylated in vitro on Thr-309) (Homo sapiens, UniProt P31751).
T1 construct: pΔPH-PKB-ΔC (residues 146 to 460, phosphorylated in vitro on Thr-309); 6xHis (N, cleaved yes); made in house; host or cells: Sf9 insect cells / baculovirus (pFastBacHTa)
Nature of the assay: Protein kinase B assay with Crosstide as substrate, peptide stimulation of pΔPH-PKB-ΔC. Type of assay: biochemical. Particulars: for stimulation of pΔPH-PKB-ΔC activity (in words): PIFtide peptides at 210-250 μM, PKB HM-peptide up to 1.2 mM; for fold lower affinity than PIFtide, from estimated EC50: PKB not phosphorylated on Ser 474. The method, then:
To test the model that Ser 474 phosphorylation promotes an interaction between the hydrophobic motif and the induced hydrophobic groove of the N-terminal lobe, thereby causing an allosteric activation of the kinase, the ability of peptides modelled on the hydrophobic motif of PKB to activate the enzyme via an intermolecular association with the N-terminal lobe was assessed.
(§1) PKB was assayed essentially as described by Andjelkovic et al. (1999) with 30 μM Crosstide (GRPRTSSAEG) as substrate except the protein kinase A inhibitor peptide was not added to the reactions. For peptide stimulation experiments the various peptides were dissolved in water and added to the kinase assay mix prior to adding the PKB protein. Peptides were synthesized by Franz Fischer at the FMI or purchased from Neosystem, Strasburg, France.
(§2) All experiments were performed in either duplicate or triplicate.

The next assay deals with T2, pΔPH-PKB-ΔC (Homo sapiens, UniProt P31751).
T2 construct: pΔPH-PKB-ΔC (residues 146 to 460, phosphorylated in vitro on Thr-309); 6xHis (N, cleaved yes); made in house; host or cells: Sf9 insect cells / baculovirus (pFastBacHTa)
Nature of the assay: Isothermal titration calorimetry, peptide binding to pΔPH-PKB-ΔC. The method, then: (C) Isothermal titration calorimetry measurements of the binding of PIFtide to pΔPH-PKB-ΔC (left) and ΔPH-PKB-ΔC (right). Upper panel, raw data of the titration of PIFtide into pΔPH-PKB-ΔC. Lower panel, integrated heats of injections, corrected for the heat of dilution, with the solid line corresponding to the best fit of the data using the MicroCal software.
Using isothermal titration calorimetry, the affinity between PIFtide and both pΔPH-PKB-ΔC and ΔPH-PKB-ΔC was determined (FIG. 5C). […] The observed large decrease in entropy is […] typical of protein-peptide interactions, for example SH2-domain-phosphotyrosine peptide complexes (Ladbury et al., 1996), and is consistent with an ordering of both the protein, presumably the αB- and αC-helices of the N-lobe, and peptide on complex formation.

Assay [3] addresses T3, ΔPH-PKB phosphorylated on both Thr 309 and Ser 474 (Homo sapiens, UniProt P31751).
T3 construct: Purification of ΔPH-PKBβ-ΔC (Residues 146-460) and ΔPH-PKBβ (Residues 146-481); 6xHis (N, cleaved yes); made in house; host or cells: Sf9 insect cells / baculovirus (pFastBacHTa)
Nature of the assay: Protein kinase B assay with Crosstide, peptide stimulation of doubly phosphorylated ΔPH-PKB. The class given is biochemical. The method, then: as §1, §2

For assay [4], the target named is T4, His tagged pΔPH-PKB-ΔC wild type (Homo sapiens, UniProt P31751).
T4 construct: pΔPH-PKB-ΔC (residues 146 to 460, phosphorylated in vitro on Thr-309); made in house; host or cells: HEK cells (transient expression), purified on Ni-NTA agarose
Nature of the assay: PIFtide responsiveness of His tagged wild type pΔPH-PKB-ΔC expressed in HEK cells. Type of assay: biochemical. Particulars: incomplete Thr 309 phosphorylation. The procedure:
To test the notion that a hydrophobic groove is induced in PKB to engage the hydrophobic motif, and activate the kinase, a series of His tagged pΔPH-PKB-ΔC hydrophobic groove mutants were prepared and their responsiveness to PIFtide assessed. PKB mutants were transiently expressed in HEK cells, phosphorylated in vitro with PDK1, and purified using Ni-NTA agarose. […] Wild type PKB prepared using this procedure was stimulated ˜5-fold by 130 μM PIFtide (FIG. 6B).
as §1

Assay [5] concerns the target His tagged pΔPH-PKB-ΔC hydrophobic groove mutant V194A-V198A (human) (UniProt P31751). Kind of assay: cell-based or functional assay.
Assay [6] has as its target His tagged pΔPH-PKB-ΔC, wild type, transiently expressed in HEK cells (human) (UniProt P31751). Kind of assay: cell-based or functional assay.
Assay [7] addresses ΔPH-PKB (human PKBβ residues 146-481) phosphorylated on Thr 309 (human) (UniProt P31751). Nature of the assay: cell-based or functional assay.
For assay [8], the target named is ΔPH-PKBβ-ΔC (human PKBβ residues 146 to 460, not phosphorylated on Thr-309) (human) (UniProt P31751). Nature of the assay: isothermal titration calorimetry.
Assay [9] concerns the target pΔPH-PKBβ-ΔC (human PKBβ residues 146 to 460, phosphorylated in vitro on Thr-309) (human) (UniProt P31751). Kind of assay: cell-based or functional assay. This is another data set of the same source.
The mark [10] stands for this setting: assuming activation at saturating peptide similar to that induced by PIFtide, read-out: EC50 estimated from FIG. 5A.

T1 sequence (P31751 146-460, stated change not applied): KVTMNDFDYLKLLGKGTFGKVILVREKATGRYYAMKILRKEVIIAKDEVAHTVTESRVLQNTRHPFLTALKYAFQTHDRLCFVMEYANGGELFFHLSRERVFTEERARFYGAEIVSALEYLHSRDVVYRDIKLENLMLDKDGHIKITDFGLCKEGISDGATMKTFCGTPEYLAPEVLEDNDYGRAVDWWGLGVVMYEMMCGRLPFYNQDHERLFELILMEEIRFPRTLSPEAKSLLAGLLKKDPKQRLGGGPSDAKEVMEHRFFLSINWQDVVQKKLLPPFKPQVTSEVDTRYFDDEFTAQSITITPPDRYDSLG
Sequence of pΔPH-PKBβ-ΔC (human PKBβ residues 146 to 460, phosphorylated in vitro on Thr-309) (human) (P31751 146-460, stated change not applied): as above
Sequence of ΔPH-PKBβ-ΔC (human PKBβ residues 146 to 460, not phosphorylated on Thr-309) (human) (P31751 146-460, stated change not applied): as above
Sequence of His tagged pΔPH-PKB-ΔC hydrophobic groove mutant V194A-V198A (human) (P31751 146-460 V194A/V198A limits assumed): as the sequence (P31751 146-460, stated change not applied) above, with V49A, V53A counted along it
T3 sequence (P31751 146-481, stated change not applied): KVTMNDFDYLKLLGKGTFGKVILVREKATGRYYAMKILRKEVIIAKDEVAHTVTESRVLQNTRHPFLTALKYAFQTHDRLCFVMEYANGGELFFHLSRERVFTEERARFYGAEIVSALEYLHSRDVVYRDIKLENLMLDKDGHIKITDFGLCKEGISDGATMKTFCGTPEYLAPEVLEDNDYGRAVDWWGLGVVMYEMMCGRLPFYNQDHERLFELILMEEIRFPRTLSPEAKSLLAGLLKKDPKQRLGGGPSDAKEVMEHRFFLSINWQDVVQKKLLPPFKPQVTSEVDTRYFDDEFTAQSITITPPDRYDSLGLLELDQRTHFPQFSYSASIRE
Sequence of His tagged pΔPH-PKB-ΔC, wild type, transiently expressed in HEK cells (human) (P31751 146-460, stated change not applied): as the sequence (P31751 146-460, stated change not applied) above
T4 sequence (P31751 146-460, stated change not applied): as above
T2 sequence (P31751 146-460, stated change not applied): as above

Take “PKB HM-P (peptide modelled on the phosphorylated hydrophobic motif of PKBβ, residues 460-481)”: in [1], the estimated EC50 of activation of kinase activity was 2.3 mM; the fold lower affinity than PIFtide, from the estimated EC50 of activation is 1000 fold; the stimulation of PKB kinase activity towards Crosstide amounted to 4 fold.
Regarding `CC[C@H](C)[C@H](NC(=O)[C@H](Cc1ccc(O)cc1)NC(=O)[C@H](C)NC(=O)[C@H](Cc1ccccc1)NC(=O)[C@H](CC(=O)O)NC(=O)[C@H](CCCNC(=N)N)NC(=O)[C@H](Cc1ccccc1)NC(=O)[C@H](CCSC)NC(=O)[C@H](CCC(=O)O)NC(=O)[C@H](CCC(N)=O)NC(=O)[C@H](CCC(=O)O)NC(=O)[C@H](CCC(=O)O)NC(=O)[C@H](CCC(=O)O)NC(=O)[C@H](CO)NC(=O)[C@H](CC(C)C)NC(=O)[C@@H](NC(=O)[C@H](CCCNC(=N)N)NC(=O)[C@@H]1CCCN1C(=O)[C@H](CCC(=O)O)NC(=O)[C@@H](N)CCCNC(=N)N)[C@@H](C)CC)C(=O)N[C@@H](C)C(=O)N[C@@H](CC(=O)O)C(=O)N[C@@H](Cc1c[nH]c2ccccc12)C(=O)O` [PIFtide(D->A)] (H-REPRILSEEEQEMFRDFAYIADW-OH; N-terminus and C-terminus assumed), the “fold lower affinity than PIFtide, from EC50” value in assay [2] came out at 10 fold. The concentration for a half-maximal effect (EC50) in assay [2] (Crosstide substrate, value of PIFtide(D->A) called estimated, read-out: EC50 for activation of pΔPH-PKB-ΔC) was 0.03 mM. Further, in assay [2] (saturating / high concentrations of the mutant peptide), the “maximal activation of pΔPH-PKB-ΔC compared with wild type PIFtide (in words)” value is recorded as “identical to that of the wild type peptide; also recorded: could activate PKB maximally”. Also, the “fold lower affinity relative to PIFtide, ITC” value at pΔPH-PKB-ΔC was “approximately 25 fold”.
GLLELDQRTHFPQFSYSASIRE [PKB HM-S]: the “stimulation of pΔPH-PKB-ΔC activity (in words)” value in [2] (Crosstide substrate) is given as “did not stimulate”.
Consider `CC[C@H](C)[C@H](NC(=O)[C@H](CO)NC(=O)[C@H](C)NC(=O)[C@H](CO)NC(=O)[C@H](Cc1ccc(O)cc1)NC(=O)[C@H](COP(=O)(O)O)NC(=O)[C@H](Cc1ccccc1)NC(=O)[C@H](CCC(N)=O)NC(=O)[C@@H]1CCCN1C(=O)[C@H](Cc1ccccc1)NC(=O)[C@H](Cc1c[nH]cn1)NC(=O)[C@@H](NC(=O)[C@H](CCCNC(=N)N)NC(=O)[C@H](CCC(N)=O)NC(=O)[C@H](CC(=O)O)NC(=O)[C@H](CC(C)C)NC(=O)[C@H](CCC(=O)O)NC(=O)[C@H](CC(C)C)NC(=O)[C@H](CC(C)C)NC(=O)CN)[C@@H](C)O)C(=O)N[C@@H](CCCNC(=N)N)C(=O)N[C@@H](CCC(=O)O)C(=O)O` [HM-P, GLLELDQRTHFPQFpSYSASIRB] (H-GLLELDQRTHFPQF[pS]YSASIRE-OH; N-terminus and C-terminus assumed), for which the “fold lower affinity than PIFtide, from estimated EC50” value in assay [2] is given as approximately 1000 fold. Besides, the concentration for a half-maximal effect (EC50) in [2] (setting [10]) was 2.3 mM. The “activation of ΔPH-PKB phosphorylated on both Thr 309 and Ser 474 (in words)” value in [3] was “did not further activate”. The “activation of wild type PKB by PKB HM-peptide (in words)” value in assay [4] is given as “did not elicit measurable activation”.
Turning to `CC[C@H](C)[C@H](NC(=O)[C@H](CO)NC(=O)[C@H](C)NC(=O)[C@H](CO)NC(=O)[C@H](Cc1ccc(O)cc1)NC(=O)[C@H](CC(=O)O)NC(=O)[C@H](Cc1ccccc1)NC(=O)[C@H](CCC(N)=O)NC(=O)[C@@H]1CCCN1C(=O)[C@H](Cc1ccccc1)NC(=O)[C@H](Cc1c[nH]cn1)NC(=O)[C@@H](NC(=O)[C@H](CCCNC(=N)N)NC(=O)[C@H](CCC(N)=O)NC(=O)[C@H](CC(=O)O)NC(=O)[C@H](CC(C)C)NC(=O)[C@H](CCC(=O)O)NC(=O)[C@H](CC(C)C)NC(=O)[C@H](CC(C)C)NC(=O)CN)[C@@H](C)O)C(=O)N[C@@H](CCCNC(=N)N)C(=O)N[C@@H](CCC(=O)O)C(=O)O` [PKB HM-D] (H-GLLELDQRTHFPQFDYSASIRE-OH; N-terminus and C-terminus assumed), the “fold lower affinity than PIFtide, from estimated EC50” value in [2] is approximately 1000 fold. The concentration for a half-maximal effect (EC50) in assay [2] (setting [10]) was 3.6 mM.
In assay [5], “PIFtide (synthetic peptide encompassing the PRK2 hydrophobic motif)” registered a PIFtide activation relative to wild type (% of wild type) of 25. The stimulation of PKB kinase activity by 130 µM PIFtide in assay [6] was 5 fold. In assay [1], the EC50 of activation of kinase activity came to 3 µM; the activation of PKB kinase activity turned out to be 15 fold; the peptide concentration giving maximum and saturable activation worked out at 20 µM; the specific activity of pΔPH-PKB-ΔC maximally activated by PIFtide was 350 nmol/min/mg. The activation of PKB kinase activity in assay [7] is 5 fold. In assay [8], this molecule showed a TΔS of -9.2 kcal/mol and a ΔH of -16 kcal/mol.
For “MFRDFDYIADW [PIFtide1, 11-residue peptide encompassing the six-residue hydrophobic motif of PIFtide]”, in assay [2] (Crosstide substrate), the “stimulation of pΔPH-PKB-ΔC activity (in words)” value is “essentially recapitulates the activation”.
Turning to GLLELDQRTHFPQFDYSASIRE [PKB HM-D (PKB hydrophobic motif peptide with aspartate at position 474)], in [9], the estimated EC50 of activation of kinase activity is 3.6 mM; the fold lower affinity than PIFtide, from the estimated EC50 of activation was 1000 fold; the stimulation of PKB kinase activity towards Crosstide was 3 fold.
